Results on 1 molecule are retold here after patent publication US20100092488A1.

This assay concerns the target T1, MK (endogenous, in the culture of CD4-positive T cells from wild-type murine spleens with APC) (UniProt P12025).
T1 sequence (looked up): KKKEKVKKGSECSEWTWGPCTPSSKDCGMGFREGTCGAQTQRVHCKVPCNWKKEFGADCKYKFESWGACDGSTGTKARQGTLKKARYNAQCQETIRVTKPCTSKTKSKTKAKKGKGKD
The assay is described as follows: cell-based or functional assay.

B1: anti-MK antibody (IP-13) (antibody, from another filing, V domains shown)
VH: EVQLQQSGPELVKPGASVKIPCKASGYTFTDYNMGWVKQSHGKSLEWIGDINPNNGGTIYNQKFKGKATLTVDKSSSTAYMELRSLTSEDTAVYYCARWSYSNPYFDYWGQGTTLTVSS
VL: SIVMTQTPNFLLVSAGDRVTITCKASQSVSNDVSWYQQKPGQSPKLLIYYASNLYTGVPDRFTGSGYGTDFTFTISTVQAEDLAVYFCQQDYSSPWTFGGGTKLEIK
B1: the proportion of CD4-positive, CD25-positive T cells among the CD4-positive T cells (flow cytometer; IP-13 30 µg/mL, MOG35-55 and APC, five days) is 4%.
